The values below come from the supplement of paper PMC12042874.

± gives the uncertainty stated by the source.

This series can be described thus: amyloid nucleation score (Sup35N fusion, yeast selection) (log enrichment); library NNK1; higher = more nucleation; inactive = no reads after selection. The essentials: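 The nucleation score is a DiMSum log enrichment of output over input reads, centred on the mode score of non-aggregating sequences. Sequences under 100 input reads were excluded, and reads came from Illumina sequencing of plasmid inserts. Psi-negative yeast expressing Sup35N fused to peptides of 20 random codons were induced with 100 μM copper sulfate for 24 hours and grown 7 days at 30°C on medium lacking adenine and uracil. Random libraries had three technical output replicates.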
For HFRDCVPYFMVSRSRGELGE, the amyloid nucleation score was -0.42 ± 0.75.
For SHELVKHGYKY the value was -0.436 ± 0.47; for LSHLRSLYKGCSYRMHSWMY, 1.04 ± 0.58; for MRTRWSIIMDVRYDNSV, 1.55 ± 0.21.
Turning to RFYTYQNDVAGSDDKFSMLC, the amyloid nucleation score was -0.232 ± 0.24.
With CEKTWNLRDCSGLLQVTRG the figure was 0.099 ± 0.29.
With DCWRRYYSSLLITVGGLFYK the figure was -0.014 ± 0.34; with SMRIFMMLQWYRGSNLCFFH, 0.537 ± 1.1.
For VPNVGYI the value was 0.369 ± 0.54; for SITADLGHNSVALGVALLVI, -0.057 ± 1.7.
MGLSLPSFW registered an amyloid nucleation score of -0.516 ± 1.7.
For TMFLVSRDFRGIVLYWITTF the value was -0.364 ± 0.78; for TRPLPWTQP, 0.242 ± 0.47; for LFIRYALSFESMWL, 0.586 ± 0.52.
In turn, LEHHCAHCIGEVTINIKRFP came in with an amyloid nucleation score of 0.306 ± 0.41.
In turn, NPLVFRN displayed an amyloid nucleation score of -0.122 ± 0.61.
FSRNAAYMIICSTGRRKFWH returned an amyloid nucleation score of 3.75 ± 0.074.
For ELGPRPHTFLEFAGICVGGM the value was -0.422 ± 1.4; for MRAEVALFCGNSASVVCGAW, -0.221 ± 0.34.
With KKDSTYSRSRLDPFRLSVSV the figure was -0.14 ± 0.5.
For ATSKRIQWLMRERAPPTRYP the value was 0.203 ± 1.5; for CLARNSYPDVFRSETGKEAV, -0.093 ± 0.7; for YIMILSYAVNKSYFTRLSCN, -0.459 ± 0.67.
With TRWCVRERVSFKRAGQCDRV, the amyloid nucleation score entry was “inactive”.
For KLNLKFYAFYNM the value was 5.49 ± 0.073; for HHNNDSDYKLREN, 0.116 ± 0.48.
For QFRCFHLL the value was -0.026 ± 1.2; for RIDLGQTVFMVKYIAA, 0.122 ± 0.17; for SVVRNESNSLVH, 0.065 ± 0.28.
With NDACYWEFCYADKLYFEWWF the figure was 1.04 ± 0.44; with LLQSGGLVIRVHCSMFTVGA, -0.889 ± 0.78.
In turn, RCELMNIEFWVKHYGSSSGF displayed an amyloid nucleation score of 1.64 ± 0.18.
For GYPIDGMYKRAALVRMDICF the value was 0.718 ± 0.92.
With HNCDYNCFNRGAHRVSEVGI the entry was “inactive”.
For TFGTKRRLGL the value was 1.47 ± 0.5.
LDLGEV registered an amyloid nucleation score of 0.025 ± 0.36.
Regarding QFLRALGYAERRVGRRWLGW, the amyloid nucleation score was -0.065 ± 0.71.
For VFRFRGCF the value was 1.62 ± 0.38; for AELVQFSCLKLSFKSSENPS, 3.06 ± 0.21; for RYWYMTGMAMLNK, 0.58 ± 0.84.
For TYYAAMRDGFVYHTKGLMAS the value was -0.209 ± 1.
With LYSGFNRSKRSAVNSICAH the figure was 0.368 ± 0.18.
FSASLNDLGLQKRVNVSVD came in with an amyloid nucleation score of -0.413 ± 0.49.
For LRIERMWVWVSA the value was 0.556 ± 0.65; for YHPRTSYFCDVVFRGPERGN, 1.87 ± 0.69.
For LRYASEGSKFFVWNLTYLNR the value was -0.147 ± 1.2.
With SLNFPLLSQPAPIFVLSDKG the figure was 0.974 ± 0.76; with NKIGRGVVCSRLWTCCSCFM, 8.554 ± 0.079; with WTVMVNICLGHCRVLSQLVP, 1.79 ± 0.24.
Turning to CLNVYNLFMSLPGVAAPPMV, the amyloid nucleation score stood at 6.9 ± 0.085.
With LMFGRKCMLSLFPVRFHRCH the figure was 0.378 ± 0.9.
In the case of YCYEQVDSV, the amyloid nucleation score turned out to be 0.154 ± 0.42.
With DLHRRSVCCFENVFVITAYY the figure was 2.06 ± 0.27; with IRSVGRSLRFMYS, 0.204 ± 0.46.
In the case of ISINQIMFAKGPYFERLAEN, the amyloid nucleation score was determined as 4.07 ± 0.096.
With CLSSALLHLFRRNRIISVVT the figure was 0.193 ± 0.39; with STVTTAYNDMSLIWQAARVL, 0.436 ± 0.57.
With PAYRRCRPFFVHAHRFMGST the figure was 0.681 ± 0.44; with LLCYMRGYPSCL, 0.512 ± 0.36.
Substance NTDSLLFNLISLMRNRERFK yielded an amyloid nucleation score of 0.351 ± 0.54.
With FCLIFDGC the entry was “inactive”; with LVLIRKLVWGSGSDTLWVRR, “inactive”.
With FDFTNGRISFAFCNNSCCPY the figure was 2.46 ± 0.34; with SKVNISSYNSCFVRKGCQCR, 6.328 ± 0.046; with FLMYFQNRV, 0.624 ± 0.33.
With LVRAIIANCAYFCQFRFSLG the figure was 0.944 ± 0.69; with FEHVPLFTTMPIEEFYRIVY, 0.262 ± 0.28; with SCLKSDVYVCCEDLRRLDCV, -0.453 ± 0.38.
The substance MYGLLEDERTVCQWKMICVV displayed an amyloid nucleation score of -0.157 ± 0.69.
With YVLRSAMACLCDCVCESCGG the figure was 2.71 ± 0.12; with GSWNALRLRCVNVVRTGVMN, -0.496 ± 0.59.
With VNVITGWCAQELVVRAILEI the figure was 0.341 ± 0.4.
For VQGLIQVSVYDRVAGCWHRI the value was -0.83 ± 0.66; for YIDKG, -0.893 ± 1.9.
For the substance TKILRP, the amyloid nucleation score was determined as 0.33 ± 0.22.
For NVWIYPDSMKSNQTDLG the value was 1.26 ± 0.74; for FFALIYI, 0.357 ± 0.36; for ATCNSVRARGFTPGHHLAPG, -0.405 ± 1.7.
With SYYRLGACSRCHYFFMIEAR the entry was “inactive”; with KTHQLTSRTEWLYGVGVSAQ, -1.78 ± 2.4.
For SNFGCFYCLLIPRNKKLGLG the value was 1.67 ± 0.47.
Turning to SIRLYETHSLT, the amyloid nucleation score was found to be 0.885 ± 0.14.
Regarding LYLLSDNFR, the amyloid nucleation score turned out to be 1.68 ± 0.72.
VVIVN gave an amyloid nucleation score of 0.439 ± 0.47.
In turn, SMCTCLRMGRLPIQVFSWSG yielded an amyloid nucleation score of -1.52 ± 2.7.
The substance TGLLSR displayed an amyloid nucleation score of 1.33 ± 0.9.
For the substance INRVSLCTVEAVLSHEDACG, the amyloid nucleation score is -0.494 ± 0.32.
With SFALLTQLNEYKTARMKRAG, the amyloid nucleation score came out at 0.64 ± 0.35.
MLPQSSSRQLRVGCASLCNM registered an amyloid nucleation score of -0.148 ± 0.6.
AVVDRDMHYASTCSGGVGCH returned an amyloid nucleation score of -0.186 ± 0.96.
With MHISWPYYRHDIVRRKSCSA the figure was 0.011 ± 0.29; with CWLGCYPSSGEQWGGWFNAI, -0.344 ± 0.7; with FLILVSLGELGVTAI, “inactive”.
QPLSLCLVFDCTNISFSFQA: the amyloid nucleation score turned out to be 8.594 ± 0.045.
Turning to INSAHYELN, the amyloid nucleation score is -1.51 ± 2.4.
For TKNVLLTYGHPMLDMFAVVY the value was “inactive”.
For TYWYSHINFLYYIASFVWSP the value was “inactive”.
